{"source": "paper PMC8575367", "test_in_all_cases": "fluorescence anisotropy", "key": {"[1]": {"biological_target": "T1, CPSF30-5F (five CCCH domains) (Bos taurus, UniProt O19137 33-170)", "T1 sequence (O19137 33-170)": "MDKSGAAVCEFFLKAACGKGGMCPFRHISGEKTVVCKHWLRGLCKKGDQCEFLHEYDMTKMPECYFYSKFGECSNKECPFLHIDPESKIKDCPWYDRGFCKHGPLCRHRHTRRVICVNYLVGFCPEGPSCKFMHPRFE"}, "[2]": {"biological_target": "T1, CPSF30-5F (five CCCH domains)", "remark": "listed apart in the source"}, "[3]": {"biological_target": "T1, CPSF30-5F (five CCCH domains)", "remark": "listed apart in the source"}, "[4]": {"biological_target": "T1, CPSF30-5F (five CCCH domains)", "remark": "listed apart in the source"}, "[5]": {"biological_target": "T1, CPSF30-5F (five CCCH domains)", "remark": "listed apart in the source"}, "[6]": {"biological_target": "T1, CPSF30-5F (five CCCH domains)", "remark": "listed apart in the source"}, "[7]": {"biological_target": "CPSF30-FL (five CCCH + CCHC zinc knuckle) (Bos taurus, UniProt O19137 1-243)", "sequence (O19137 whole entry)": "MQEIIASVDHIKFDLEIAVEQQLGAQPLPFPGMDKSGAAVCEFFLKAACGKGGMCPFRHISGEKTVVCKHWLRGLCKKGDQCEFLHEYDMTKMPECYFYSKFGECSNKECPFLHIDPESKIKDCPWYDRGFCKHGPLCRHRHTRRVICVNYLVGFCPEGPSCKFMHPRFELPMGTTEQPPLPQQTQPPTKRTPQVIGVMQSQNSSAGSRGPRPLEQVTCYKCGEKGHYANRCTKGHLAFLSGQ"}, "[8]": {"biological_target": "T1, CPSF30-5F (five CCCH domains)", "remark": "listed apart in the source"}, "[9]": {"biological_target": "T1, CPSF30-5F (five CCCH domains)", "remark": "listed apart in the source"}, "[10]": {"biological_target": "T1, CPSF30-5F (five CCCH domains)", "remark": "listed apart in the source"}, "[11]": {"biological_target": "T1, CPSF30-5F (five CCCH domains)", "remark": "listed apart in the source"}}, "note": "Where two headings read alike, the source gives them in different places.", "data": [{"binder": "UCUCACUUUAAUAAUAAGAAUCAUGCUUAU (ssRNA)", "note": "[ATHA (α-thalassemia)]", "values": [{"measurement": "apparent K (half saturation)", "setting": "[1]", "result": "135 ± 6.3", "unit": "nM"}]}, {"binder": "UCUCACUUUAAUAGUAAAAAUCAUGCUUAU (ssRNA)", "note": "[P2AtoG]", "values": [{"measurement": "apparent K (half saturation)", "setting": "[2]", "result": "376 ± 12", "unit": "nM"}]}, {"binder": "UCUCACUUUAAUAAUCAAAAUCAUGCUUAU (ssRNA)", "note": "[P4AtoC]", "values": [{"measurement": "apparent K (half saturation)", "setting": "[2]", "result": "335 ± 38", "unit": "nM"}]}, {"binder": "UCUCACUUUAAUAUUAAGAAUCAUGCUUAU (ssRNA)", "note": "[FABRY]", "values": [{"measurement": "binding result", "setting": "[3]", "result": "no binding"}]}, {"binder": "UCUCACUUUAAUAAUGAAAAUCAUGCUUAU (ssRNA)", "note": "[IPEX]", "values": [{"measurement": "binding result", "setting": "[3]", "result": "no binding"}]}, {"binder": "UCUCACUUUUCGAAUAAAUCGCAUGCUUAU (ssRNA)", "note": "[Least freq fl (UCG flanks)]", "values": [{"measurement": "apparent K (half saturation)", "setting": "[4]", "result": "309 ± 25", "unit": "nM"}]}, {"binder": "UCUCACUUUAAUAAUAACAAUCAUGCUUAU (ssRNA)", "note": "[P6AtoC]", "values": [{"measurement": "apparent K (half saturation)", "setting": "[2]", "result": "309 ± 26", "unit": "nM"}]}, {"binder": "UUUAUUAUUUAUUUAUUAUUUAUUUAUUUA (ssRNA)", "note": "[ARE-30]", "values": [{"measurement": "apparent K (half saturation)", "setting": "[5]", "result": "163 ± 10", "unit": "nM"}]}, {"binder": "UUAUUAUUUAUUUAUUUA (ssRNA)", "note": "[ARE-18]", "values": [{"measurement": "apparent K (half saturation)", "setting": "[6]", "result": "671 ± 49", "unit": "nM"}]}, {"binder": "CACUUUAAUAAUAAAAAUCAUGCU (ssRNA)", "note": "[α-syn24 (labeled)]", "values": [{"measurement": "binding result", "setting": "[7]", "result": "binds"}]}, {"binder": "UCUCACUUUAAAAAUAAAAAACAUGCUUAU (ssRNA)", "note": "[Most freq fl (AAA flanks)]", "values": [{"measurement": "apparent K (half saturation)", "setting": "[1]", "result": "226 ± 1.6", "unit": "nM"}]}, {"binder": "UCUCACUUUAAUAACAAAAAUCAUGCUUAU (ssRNA)", "note": "[BTHA (β-thalassemia)]", "values": [{"measurement": "apparent K (half saturation)", "setting": "[6]", "result": "148 ± 9", "unit": "nM"}]}, {"binder": "UCUCACUUUAAUAUUAAAAAUCAUGCUUAU (ssRNA)", "note": "[P2AtoU]", "values": [{"measurement": "apparent K (half saturation)", "setting": "[8]", "result": "207 ± 0.6", "unit": "nM"}]}, {"binder": "GUGAUUAUUUAUUAUUUAUUUAUUAUUUAUUUAUUUAG (ssRNA)", "note": "[ARE-38]", "values": [{"measurement": "apparent K (half saturation)", "setting": "[9]", "result": "141 ± 5", "unit": "nM"}]}, {"binder": "AUUAUUUAUUUAUUUA (ssRNA)", "note": "[ARE-16]", "values": [{"measurement": "apparent K (half saturation)", "setting": "[10]", "result": "1000 ± 82", "unit": "nM"}]}, {"binder": "UCUCACUUUAAUAAUAGAAAUCAUGCUUAU (ssRNA)", "note": "[LUPUS]", "values": [{"measurement": "binding result", "setting": "[3]", "result": "no binding"}]}, {"binder": "UUUAUUAUUUAUUUAUUUAG (ssRNA)", "note": "[ARE-20]", "values": [{"measurement": "apparent K (half saturation)", "setting": "[6]", "result": "499 ± 37", "unit": "nM"}]}, {"binder": "UCUCACUUUAAUAAUACAAAUCAUGCUUAU (ssRNA)", "note": "[P5AtoC]", "values": [{"measurement": "apparent K (half saturation)", "setting": "[8]", "result": "278 ± 29", "unit": "nM"}]}, {"binder": "AUUUAUUUAUUAUUUAUUUAUUUA (ssRNA)", "note": "[ARE-24]", "values": [{"measurement": "apparent K (half saturation)", "setting": "[11]", "result": "265 ± 31", "unit": "nM"}]}]}
